Target: T1, activated human complement C1s (Homo sapiens, UniProt P09871 16-688)
T1 sequence: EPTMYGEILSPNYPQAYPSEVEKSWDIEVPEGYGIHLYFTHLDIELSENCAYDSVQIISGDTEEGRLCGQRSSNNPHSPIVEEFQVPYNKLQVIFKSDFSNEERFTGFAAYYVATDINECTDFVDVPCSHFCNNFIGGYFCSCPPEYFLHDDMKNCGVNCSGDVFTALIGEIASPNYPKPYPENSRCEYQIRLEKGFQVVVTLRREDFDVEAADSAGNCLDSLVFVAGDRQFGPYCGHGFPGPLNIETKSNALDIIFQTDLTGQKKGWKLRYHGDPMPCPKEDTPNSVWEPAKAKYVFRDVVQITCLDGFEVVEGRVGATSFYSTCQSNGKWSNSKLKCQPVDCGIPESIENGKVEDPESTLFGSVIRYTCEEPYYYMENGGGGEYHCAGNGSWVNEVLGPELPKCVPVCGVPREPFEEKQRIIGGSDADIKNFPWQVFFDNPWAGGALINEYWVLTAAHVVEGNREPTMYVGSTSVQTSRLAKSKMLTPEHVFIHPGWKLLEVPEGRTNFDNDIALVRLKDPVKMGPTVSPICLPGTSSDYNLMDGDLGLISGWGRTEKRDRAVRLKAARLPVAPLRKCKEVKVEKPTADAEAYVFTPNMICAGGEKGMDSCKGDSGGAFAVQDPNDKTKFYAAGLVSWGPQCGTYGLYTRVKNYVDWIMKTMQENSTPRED
Assay: cell-based or functional assay

B1: SAR445088 (antibody, human IgG4 S228P, kappa, V domains shown)
VH: QVQLVQSGAEVKKPGASVKLSCTASGFNIKDDYIHWVKQAPGQGLEWIGRIDPADGHTKYAPKFQVKVTITADTSTSTAYLELSSLRSEDTAVYYCARYGYGREVFDYWGQGTTVTVSS
VL: DIVLTQSPDSLAVSLGERATISCKASQSVDYDGDSYMNWYQQKPGQPPKILIYDASNLESGIPARFSGSGSGTDFTLTISSLEPEDFAIYYCQQSNEDPWTFGGGTKVEIKR
  CH50 (50% hemolytic complement activity, liposome-based assay), population PK/PD model, typical IC50: 16.6 µg/mL
  percent CP (Wieslab classical pathway assay), population PK/PD model, typical IC50: 96.4 µg/mL
